Data from the supplement of paper PMC9112550, “Optimization of the antimicrobial peptide Bac7 by deep mutational scanning” (BMC Biology, 2022).

test system: Escherichia coli TOP10; assay: shrunken log2 fold change of peptide-encoding DNA abundance (4.5 h post-induction vs induction); higher = less antimicrobial activity (less host growth inhibition); conditions: time post-induction: 4.5 h; library: site-saturation at positions 5, 18, 19, 20
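Further: peptides expressed intracellularly from a pBAD plasmid library in pooled LB shake-flask culture, induced with 0.3% L-arabinose, DNA abundance read by NGS, three biological replicates, DESeq2 with apeglm shrinkage.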

Row | Sequence | shrunken log2 fold change
1 | RRIRNRPPRLPRPRPRPSTMPRP | -1.15
2 | RRIRIRPPRLPRPRPRPKFTPRP | -0.8
3 | RRIRTRPPRLPRPRPRPQWFPRP | -0.0925
4 | RRIRRRPPRLPRPRPRPWWDPRP | -0.0777
5 | RRIRDRPPRLPRPRPRPSVSPRP | 0.0104
6 | RRIRQRPPRLPRPRPRPKTPPRP | -0.0134
7 | RRIRKRPPRLPRPRPRPYKEPRP | -0.417
8 | RRIRNRPPRLPRPRPRPLRQPRP | 0.154
9 | RRIRKRPPRLPRPRPRPRSRPRP | 0.418
10 | RRIRPRPPRLPRPRPRPLMWPRP | 0.432
11 | RRIRYRPPRLPRPRPRPRMTPRP | -0.131
12 | RRIRNRPPRLPRPRPRPWFEPRP | -0.879
13 | RRIRSRPPRLPRPRPRPVYEPRP | -0.617
14 | RRIRFRPPRLPRPRPRPDNMPRP | -0.748
15 | RRIRVRPPRLPRPRPRPPSDPRP | 0.197
16 | RRIRIRPPRLPRPRPRPYFVPRP | -0.612
17 | RRIRMRPPRLPRPRPRPMAKPRP | 0.245
18 | RRIRSRPPRLPRPRPRPYGTPRP | -0.196
19 | RRIRSRPPRLPRPRPRPALGPRP | 0.505
20 | RRIRQRPPRLPRPRPRPRVHPRP | -0.163
21 | RRIRHRPPRLPRPRPRPDSSPRP | 0.00209
22 | RRIRIRPPRLPRPRPRPKIGPRP | -0.0343
23 | RRIRKRPPRLPRPRPRPDIAPRP | 1
24 | RRIRMRPPRLPRPRPRPVRHPRP | 0.237
25 | RRIRDRPPRLPRPRPRPMYFPRP | -0.358

Row | Sequence | shrunken log2 fold change
26 | RRIRKRPPRLPRPRPRPKSEPRP | 0.0409
27 | RRIRSRPPRLPRPRPRPDDHPRP | -0.0124
28 | RRIRGRPPRLPRPRPRPFRFPRP | 0.485
29 | RRIRERPPRLPRPRPRPCALPRP | -0.319
30 | RRIRGRPPRLPRPRPRPTMTPRP | 2.08
31 | RRIRNRPPRLPRPRPRPVTHPRP | 0.0124
32 | RRIRCRPPRLPRPRPRPVLLPRP | -0.385
33 | RRIRSRPPRLPRPRPRPCGRPRP | -0.485
34 | RRIRIRPPRLPRPRPRPQLEPRP | 0.000806
35 | RRIRIRPPRLPRPRPRPFKLPRP | -0.597
36 | RRIRKRPPRLPRPRPRPLFLPRP | 0.115
37 | RRIRKRPPRLPRPRPRPPFSPRP | -0.227
38 | RRIRCRPPRLPRPRPRPKTSPRP | -0.179
39 | RRIRFRPPRLPRPRPRPSERPRP | -0.0251
40 | RRIRQRPPRLPRPRPRPVSAPRP | 0.104
41 | RRIRVRPPRLPRPRPRPQYGPRP | -0.0699
42 | RRIRARPPRLPRPRPRPDEHPRP | 0.54
43 | RRIRQRPPRLPRPRPRPHKDPRP | -0.105
44 | RRIRARPPRLPRPRPRPRMTPRP | 1.04
45 | RRIRIRPPRLPRPRPRPAEGPRP | -0.122
46 | RRIRKRPPRLPRPRPRPKNLPRP | 0.177
47 | RRIRFRPPRLPRPRPRPKANPRP | 0.00613
48 | RRIRFRPPRLPRPRPRPWMFPRP | -0.451
49 | RRIRRRPPRLPRPRPRPSSIPRP | -0.485
50 | RRIRIRPPRLPRPRPRPGPKPRP | 0.00436

Row | Sequence | shrunken log2 fold change
51 | RRIRMRPPRLPRPRPRPKTMPRP | -0.0578
52 | RRIRVRPPRLPRPRPRPERDPRP | -0.15
53 | RRIRCRPPRLPRPRPRPIDHPRP | -1.01
54 | RRIRWRPPRLPRPRPRPKREPRP | 0.0441
55 | RRIRYRPPRLPRPRPRPDCYPRP | -3.15
56 | RRIRDRPPRLPRPRPRPRQYPRP | -0.332
57 | RRIRYRPPRLPRPRPRPAMGPRP | -0.031
58 | RRIRMRPPRLPRPRPRPTKHPRP | 0.17
59 | RRIRERPPRLPRPRPRPANQPRP | 0.0465
60 | RRIRGRPPRLPRPRPRPAKWPRP | 0.747
61 | RRIRHRPPRLPRPRPRPCYSPRP | -0.0983
62 | RRIRIRPPRLPRPRPRPKQSPRP | -0.384
63 | RRIRCRPPRLPRPRPRPGFDPRP | 0.104
64 | RRIRVRPPRLPRPRPRPVCMPRP | 0.0454
65 | RRIRLRPPRLPRPRPRPICRPRP | -0.13
66 | RRIRARPPRLPRPRPRPEEFPRP | 0.00844
67 | RRIRFRPPRLPRPRPRPMRWPRP | 0.264
68 | RRIRTRPPRLPRPRPRPWHKPRP | -0.168
69 | RRIRDRPPRLPRPRPRPMQAPRP | -0.00208
70 | RRIRLRPPRLPRPRPRPYDCPRP | 0.0192
71 | RRIRVRPPRLPRPRPRPIVHPRP | -0.00223
72 | RRIRGRPPRLPRPRPRPTEYPRP | -0.0607
73 | RRIRDRPPRLPRPRPRPFRCPRP | -0.0101
74 | RRIRERPPRLPRPRPRPRMAPRP | 0.2
75 | RRIRARPPRLPRPRPRPDCYPRP | 0.283
